Source: article PMC6193735, “Defining LytTR Regulatory Systems”

Target: T1, HdrR (Streptococcus mutans UA140, UniProt Q8DSE1 1-133)
T1 sequence: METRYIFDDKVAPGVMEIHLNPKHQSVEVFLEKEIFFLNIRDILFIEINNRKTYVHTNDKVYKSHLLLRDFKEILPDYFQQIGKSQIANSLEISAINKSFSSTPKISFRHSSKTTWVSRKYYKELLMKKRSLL
Assay: EMSA; 1 ng probe, 10-30 ug HdrR as printed, 20 ul; unlabeled wild-type competitor 50 and 200 ng; EMSA: 20 ul, 25 C, 20 min; binding buffer not printed (as ref 62); oligos annealed in 50 mM Tris-HCl pH 8.0, 10 mM MgCl2, 50 mM NaCl, 1 mM EDTA
Conditions: protein: recombinant; tags: His6 (HdrR-His6, pET29b); chain copies: 2; label: 5' digoxigenin-11-ddUTP on forward strand (probe); blunt

B1: hdrRMP (wild-type hdrRM operon direct repeat probe) (dsDNA)
DNA 1: TAATGGTTACCTCTTAGACATTAAAAATGACCACTTAATAGAAAAG
DNA 2: CTTTTCTATTAAGTGGTCATTTTTAATGTCTAAGAGGTAACCATTA
**Q.** Does B1 bind?
**A.** Result: binds
